In paper PMC10284691 (2023):
Like-named read-outs stand apart in the source and are kept apart here.

What was measured:
[1] = target: T1, BPH14–LRR (purified from insect cells) (rice (Oryza sativa), line RI35 carrying …, biotin (NHS-biotin) in the BLI assays; RED-NHS 2nd Generation dye in the MST assays); assay: BLI
T1 chain: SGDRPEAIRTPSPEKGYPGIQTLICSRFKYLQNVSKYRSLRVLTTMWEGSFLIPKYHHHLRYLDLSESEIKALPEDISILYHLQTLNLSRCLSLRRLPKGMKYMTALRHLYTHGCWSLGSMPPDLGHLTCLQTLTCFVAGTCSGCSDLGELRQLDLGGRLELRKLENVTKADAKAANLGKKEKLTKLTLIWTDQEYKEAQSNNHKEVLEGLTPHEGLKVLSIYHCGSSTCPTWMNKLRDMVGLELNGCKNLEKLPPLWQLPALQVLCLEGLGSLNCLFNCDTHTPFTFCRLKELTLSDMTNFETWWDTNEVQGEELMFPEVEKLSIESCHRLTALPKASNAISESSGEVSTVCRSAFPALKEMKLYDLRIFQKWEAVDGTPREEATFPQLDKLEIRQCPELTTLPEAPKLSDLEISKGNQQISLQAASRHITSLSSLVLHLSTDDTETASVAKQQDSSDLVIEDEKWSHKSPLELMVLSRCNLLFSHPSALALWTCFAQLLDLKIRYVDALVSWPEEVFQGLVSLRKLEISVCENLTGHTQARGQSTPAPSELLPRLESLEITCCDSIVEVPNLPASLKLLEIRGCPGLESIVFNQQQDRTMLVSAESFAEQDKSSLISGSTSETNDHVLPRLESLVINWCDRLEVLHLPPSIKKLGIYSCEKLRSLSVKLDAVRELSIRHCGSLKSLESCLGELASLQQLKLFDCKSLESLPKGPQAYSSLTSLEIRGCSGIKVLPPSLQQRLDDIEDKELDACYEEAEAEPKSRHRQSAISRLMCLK

[2] = target: T1, BPH14–LRR (purified from insect cells); assay: MST
[3] = target: T1, BPH14–LRR (purified from insect cells); assay: BLI
[4] = target: T1, BPH14–LRR (purified from insect cells); assay: MST; competition with BISP(26–124) prebound to LRR

Row | Binder | koff [1] [s⁻¹] | Kd [2] [nM] | koff [3] [s⁻¹] | Ki [4] [nM]
1 | BISP(26–124) (purified from insect cells) (domain or fragment) SAMRYASGFQNNERQSSEQESYSRSAQSSEKSSSGYQMGEMASAGVGMSSGYGGSGYSSGGGYQQGVGYSGCDSDYSSGGIGGIVNTATGLASSVTGMA | 0.000719 | 56.1 |  | 
2 | BISP (purified from insect cells) (natural protein) SAMRYASGFQNNERQSSEQESYSRSAQSSEKSSSGYQMGEMASAGVGMSSGYGGSGYSSGGGYQQGVGYSGCDSDYSSGGIGGIVNTATGLASSVTGMAGGLGGGGGLADVGGVVNTVSGLADVGGLTNTVSGLADVGGVTNTVGGLVNGIAGGGAGGGLLGGVLGGGDGGCGGNCGGNCGGNCGGRGGGGGGLLGGILGGGSGGGRGARVSARVC |  | 9.72 | 0.000341 | 98
